Reference: the supplement of paper PMC9112550, “Optimization of the antimicrobial peptide Bac7 by deep mutational scanning” (BMC Biology, 2022)

The sequences below were run on Escherichia coli TOP10 (assay: shrunken log2 fold change of peptide-encoding DNA abundance (4.5 h post-induction vs induction); higher = less antimicrobial activity (less host growth inhibition)). Conditions: time post-induction: 4.5 h; library: site-saturation at positions 5, 18, 19, 20.
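Further: peptides expressed intracellularly from a pBAD plasmid library in pooled LB shake-flask culture, induced with 0.3% L-arabinose, DNA abundance read by NGS, three biological replicates, DESeq2 with apeglm shrinkage.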

In order of rising “shrunken log2 fold change” value:
1. RRIRPRPPRLPRPRPRPNYMPRP  -0.737
2. RRIRSRPPRLPRPRPRPYLFPRP  -0.676
3. RRIRVRPPRLPRPRPRPSFLPRP  -0.666
4. RRIRMRPPRLPRPRPRPMTFPRP  -0.512
5. RRIRHRPPRLPRPRPRPKSMPRP  -0.503
6. RRIRHRPPRLPRPRPRPYKAPRP  -0.484
7. RRIRFRPPRLPRPRPRPISNPRP  -0.48
8. RRIRTRPPRLPRPRPRPRITPRP  -0.474
9. RRIRNRPPRLPRPRPRPTNKPRP  -0.468
10. RRIRQRPPRLPRPRPRPGMIPRP  -0.446
11. RRIRYRPPRLPRPRPRPDNTPRP  -0.325
12. RRIRWRPPRLPRPRPRPNTEPRP  -0.324
13. RRIRPRPPRLPRPRPRPTVYPRP  -0.296
14. RRIRARPPRLPRPRPRPNDTPRP  -0.283
15. RRIRCRPPRLPRPRPRPWQLPRP  -0.263
16. RRIRDRPPRLPRPRPRPGMPPRP  -0.221
17. RRIRPRPPRLPRPRPRPNVAPRP  -0.215
18. RRIRVRPPRLPRPRPRPGFHPRP  -0.184
19. RRIRHRPPRLPRPRPRPGKFPRP  -0.175
20. RRIRIRPPRLPRPRPRPIPEPRP  -0.158
21. RRIRERPPRLPRPRPRPITRPRP  -0.149
22. RRIRGRPPRLPRPRPRPAYHPRP  -0.141
23. RRIRSRPPRLPRPRPRPNIFPRP  -0.138
24. RRIRGRPPRLPRPRPRPFEWPRP  -0.127
25. RRIRCRPPRLPRPRPRPTDSPRP  -0.118
26. RRIRNRPPRLPRPRPRPLEVPRP  -0.118
27. RRIRRRPPRLPRPRPRPISVPRP  -0.115
28. RRIRYRPPRLPRPRPRPYYWPRP  -0.111
29. RRIRGRPPRLPRPRPRPMYGPRP  -0.107
30. RRIRDRPPRLPRPRPRPRWFPRP  -0.0867
31. RRIRIRPPRLPRPRPRPSPRPRP  -0.0771
32. RRIRDRPPRLPRPRPRPCTHPRP  -0.0766
33. RRIRFRPPRLPRPRPRPKHLPRP  -0.0736
34. RRIRSRPPRLPRPRPRPRPIPRP  -0.0533
35. RRIRIRPPRLPRPRPRPSDWPRP  -0.0413
36. RRIRKRPPRLPRPRPRPMCLPRP  -0.0392
37. RRIRQRPPRLPRPRPRPAFLPRP  -0.0387
38. RRIRWRPPRLPRPRPRPNFTPRP  -0.0319
39. RRIRQRPPRLPRPRPRPKEGPRP  -0.0167
40. RRIRHRPPRLPRPRPRPMYAPRP  -0.0133
41. RRIRCRPPRLPRPRPRPYLRPRP  -0.00889
42. RRIRHRPPRLPRPRPRPTQKPRP  -0.00748
43. RRIRQRPPRLPRPRPRPEDPPRP  -0.00697
44. RRIRWRPPRLPRPRPRPVSMPRP  -0.00416
45. RRIRSRPPRLPRPRPRPEQCPRP  -0.00373
46. RRIRDRPPRLPRPRPRPKGVPRP  -0.00195
47. RRIRGRPPRLPRPRPRPMHCPRP  0.0139
48. RRIRDRPPRLPRPRPRPRGMPRP  0.0251
49. RRIRERPPRLPRPRPRPKEQPRP  0.0401
50. RRIRKRPPRLPRPRPRPYESPRP  0.0419
51. RRIRMRPPRLPRPRPRPCACPRP  0.0487
52. RRIRYRPPRLPRPRPRPWLFPRP  0.0905
53. RRIRHRPPRLPRPRPRPKQWPRP  0.0913
54. RRIRSRPPRLPRPRPRPVQGPRP  0.108
55. RRIRNRPPRLPRPRPRPGICPRP  0.122
56. RRIRTRPPRLPRPRPRPNPAPRP  0.147
57. RRIRWRPPRLPRPRPRPHWGPRP  0.171
58. RRIRCRPPRLPRPRPRPQPSPRP  0.228
59. RRIRIRPPRLPRPRPRPFYQPRP  0.234
60. RRIRRRPPRLPRPRPRPFRAPRP  0.251
61. RRIRPRPPRLPRPRPRPVPPPRP  0.26
62. RRIRWRPPRLPRPRPRPCFAPRP  0.263
63. RRIRSRPPRLPRPRPRPKSPPRP  0.291
64. RRIRGRPPRLPRPRPRPSMWPRP  0.291
65. RRIRGRPPRLPRPRPRPAIYPRP  0.302
66. RRIRRRPPRLPRPRPRPDTPPRP  0.342
67. RRIRERPPRLPRPRPRPREKPRP  0.354
68. RRIRPRPPRLPRPRPRPEEPPRP  0.437
69. RRIRCRPPRLPRPRPRPEQWPRP  0.594
70. RRIRGRPPRLPRPRPRPRVHPRP  0.666
71. RRIRARPPRLPRPRPRPTQHPRP  0.698
72. RRIRMRPPRLPRPRPRPRPIPRP  0.754
73. RRIRKRPPRLPRPRPRPKPGPRP  1.2
74. RRIRMRPPRLPRPRPRPEQLPRP  1.94
75. RRIRMRPPRLPRPRPRPSADPRP  3.21
